According to PMC9106297, “Structure of a TRAPPII-Rab11 activation intermediate reveals GTPase substrate selection mechanisms” (Science Advances, 2022):

Columns and labels:
Experiment in all cases: cryo-EM structure; TRAPPII purified from yeast, incubated with tenfold molar excess of Rab11/Ypt32-7xHis and calf intestine alkaline phosphatase at 4°C overnight (nucleotide-free Rab), complex purified on Calmodulin Sepharose and by SEC; 10 mM tris (pH 8.0), 150 mM NaCl, 0.1% CHAPS, 1 mM Mg acetate, 1 mM dithiothreitol; single-particle cryo-EM
Conditions in all cases: both partners purified
[1] = target: T1, Trs130 (TRAPPII-specific subunit, in purified TRAPPII) (S. cerevisiae, UniProt Q03660 1-1102)
T1 construct: Trs130, S. cerevisiae, endogenous copy tagged at the C terminus; source: endogenous, purified from S. cerevisiae as a subunit of TRAPPII; not shown: held on Calmodulin Sepharose), C-terminal, kept
T1 sequence (looked up): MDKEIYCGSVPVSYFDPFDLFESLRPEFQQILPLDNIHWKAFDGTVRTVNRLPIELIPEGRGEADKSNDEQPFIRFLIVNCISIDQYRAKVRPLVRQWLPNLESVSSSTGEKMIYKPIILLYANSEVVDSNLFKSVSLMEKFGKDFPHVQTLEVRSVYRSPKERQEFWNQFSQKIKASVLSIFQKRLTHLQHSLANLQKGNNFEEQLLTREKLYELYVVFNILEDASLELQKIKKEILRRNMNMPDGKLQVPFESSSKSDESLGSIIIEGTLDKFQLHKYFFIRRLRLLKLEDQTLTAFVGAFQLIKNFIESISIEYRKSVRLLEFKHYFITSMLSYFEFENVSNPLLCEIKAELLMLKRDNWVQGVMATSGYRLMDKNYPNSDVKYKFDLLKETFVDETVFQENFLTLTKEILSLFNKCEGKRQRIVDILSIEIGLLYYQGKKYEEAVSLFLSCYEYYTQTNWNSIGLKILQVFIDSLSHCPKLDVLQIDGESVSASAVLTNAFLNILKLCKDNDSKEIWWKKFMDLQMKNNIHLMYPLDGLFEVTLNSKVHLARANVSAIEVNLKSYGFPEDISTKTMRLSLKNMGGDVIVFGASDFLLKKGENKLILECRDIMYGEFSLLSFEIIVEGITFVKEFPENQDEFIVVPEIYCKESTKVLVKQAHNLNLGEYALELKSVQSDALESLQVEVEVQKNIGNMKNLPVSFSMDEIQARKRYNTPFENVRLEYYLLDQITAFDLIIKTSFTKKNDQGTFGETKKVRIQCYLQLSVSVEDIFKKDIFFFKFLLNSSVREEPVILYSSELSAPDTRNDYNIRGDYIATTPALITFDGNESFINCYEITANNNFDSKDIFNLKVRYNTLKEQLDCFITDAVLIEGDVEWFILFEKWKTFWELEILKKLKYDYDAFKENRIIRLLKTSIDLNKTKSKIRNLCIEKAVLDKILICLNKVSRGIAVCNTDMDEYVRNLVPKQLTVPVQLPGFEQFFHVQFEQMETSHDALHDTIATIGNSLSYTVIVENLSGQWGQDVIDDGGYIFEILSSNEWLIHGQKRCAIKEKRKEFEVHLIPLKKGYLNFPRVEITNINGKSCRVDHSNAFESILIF

[2] = target: T2, Trs33 (TRAPP core subunit, in purified TRAPPII) (S. cerevisiae, UniProt Q99394 1-268)
T2 construct: Trs33, S. cerevisiae, endogenous; source: endogenous, purified from S. cerevisiae as a subunit of TRAPPII
T2 sequence (looked up): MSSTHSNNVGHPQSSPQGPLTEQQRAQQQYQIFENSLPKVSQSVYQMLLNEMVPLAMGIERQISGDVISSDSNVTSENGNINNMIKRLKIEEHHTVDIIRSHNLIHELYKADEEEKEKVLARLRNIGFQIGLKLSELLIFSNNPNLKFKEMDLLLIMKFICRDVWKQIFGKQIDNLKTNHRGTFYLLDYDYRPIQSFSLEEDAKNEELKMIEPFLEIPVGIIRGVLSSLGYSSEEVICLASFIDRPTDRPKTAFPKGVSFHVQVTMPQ

[3] = target: T3, Bet3 (TRAPP core subunit, in purified TRAPPII) (S. cerevisiae, UniProt P36149 1-193)
T3 construct: Bet3, S. cerevisiae, endogenous; source: endogenous, purified from S. cerevisiae as a subunit of TRAPPII
T3 sequence (looked up): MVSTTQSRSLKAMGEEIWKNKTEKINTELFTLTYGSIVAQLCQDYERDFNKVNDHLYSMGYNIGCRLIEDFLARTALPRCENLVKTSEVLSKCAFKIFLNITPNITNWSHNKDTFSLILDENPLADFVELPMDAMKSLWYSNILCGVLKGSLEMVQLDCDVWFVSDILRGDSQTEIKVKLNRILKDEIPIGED

Measured: binding result

B1: Tca17 (TRAPPII subunit, in purified TRAPPII) (natural protein, S. cerevisiae, UniProt P32613 1-152, looked up)
chain: MSLRPCFVSLIDESDKPILIYVPNEAENEMNDVLKYNVLSNISLDYFESALVEWHSLDSKPLLKSIFQLEGVSVFAMLIKQTGLKIVIGFEQKSLSGADDEFEAINQIFETVRKIYIRVKCNPLLVSGDEKSIIKSLERKFDELFISTEVEL
notes: Tca17, S. cerevisiae, endogenous; source: endogenous, purified from S. cerevisiae as a subunit of TRAPPII
binds: [1] | [2] | [3]
